Measured values from article PMC4381594, “GCN5 inhibits XBP-1S-mediated transcription by antagonizing PCAF action” (Oncotarget, 2014).

Assays:
[1] = molecular target: T1, XBP-1S, the active isoform of X-box binding protein 1 (human, UniProt P17861-2 1-376); test: cell-based or functional assay
T1 sequence (looked up): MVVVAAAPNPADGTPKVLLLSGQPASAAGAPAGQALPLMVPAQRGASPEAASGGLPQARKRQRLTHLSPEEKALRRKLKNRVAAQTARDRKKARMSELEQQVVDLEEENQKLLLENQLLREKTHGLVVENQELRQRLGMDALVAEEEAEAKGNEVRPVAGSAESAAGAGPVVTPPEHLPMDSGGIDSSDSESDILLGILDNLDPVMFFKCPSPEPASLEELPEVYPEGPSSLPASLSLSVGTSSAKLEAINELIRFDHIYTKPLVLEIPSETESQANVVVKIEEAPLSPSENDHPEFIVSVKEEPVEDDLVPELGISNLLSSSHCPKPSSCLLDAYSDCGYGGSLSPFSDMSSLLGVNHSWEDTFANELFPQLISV

[2] = molecular target: T1, XBP-1S, the active isoform of X-box …; test: co-IP; 293T cells co-transfected with PCAF and XBP-1S vectors with or without a GCN5 plasmid; IP with anti-XBP-1 antibody, immunoblot with anti-PCAF or anti-XBP-1; bands quantified by densitometry, PCAF normalised to precipitated XBP-1S; conditions: partners not purified

fold decrease in XBP-1S-mediated luciferase expression from the 5×UPRE-Luc reporter in HEK293 cells with GCN5 overexpressed [1]: > 5 fold | fold decrease of PCAF-XBP-1S binding with GCN5 overexpressed [2]: 4 fold
B1: general control nonderepressible 5 (GCN5) (enzyme, human, UniProt Q92830 1-837, looked up)
chain: MAEPSQAPTPAPAAQPRPLQSPAPAPTPTPAPSPASAPIPTPTPAPAPAPAAAPAGSTGTGGPGVGSGGAGSGGDPARPGLSQQQRASQRKAQVRGLPRAKKLEKLGVFSACKANETCKCNGWKNPKPPTAPRMDLQQPAANLSELCRSCEHPLADHVSHLENVSEDEINRLLGMVVDVENLFMSVHKEEDTDTKQVYFYLFKLLRKCILQMTRPVVEGSLGSPPFEKPNIEQGVLNFVQYKFSHLAPRERQTMFELSKMFLLCLNYWKLETPAQFRQRSQAEDVATYKVNYTRWLCYCHVPQSCDSLPRYETTHVFGRSLLRSIFTVTRRQLLEKFRVEKDKLVPEKRTLILTHFPKFLSMLEEEIYGANSPIWESGFTMPPSEGTQLVPRPASVSAAVVPSTPIFSPSMGGGSNSSLSLDSAGAEPMPGEKRTLPENLTLEDAKRLRVMGDIPMELVNEVMLTITDPAAMLGPETSLLSANAARDETARLEERRGIIEFHVIGNSLTPKANRRVLLWLVGLQNVFSHQLPRMPKEYIARLVFDPKHKTLALIKDGRVIGGICFRMFPTQGFTEIVFCAVTSNEQVKGYGTHLMNHLKEYHIKHNILYFLTYADEYAIGYFKKQGFSKDIKVPKSRYLGYIKDYEGATLMECELNPRIPYTELSHIIKKQKEIIKKLIERKQAQIRKVYPGLSCFKEGVRQIPVESVPGIRETGWKPLGKEKGKELKDPDQLYTTLKNLLAQIKSHPSAWPFMEPVKKSEAPDYYEVIRFPIDLKTMTERLRSRYYVTRKLFVADLQRVIANCREYNPPDSEYCRCASALEKFFYFKLKEGGLIDK
notes: No tag is named for this plasmid; precipitated and detected with anti-GCN5 (ab71965); also called GCN5 WT; source: 293T, transfected, in lysate
